Test results reported in publication doi:10.1101/2025.07.08.663703, “Recruitment of Mre11 to recombination sites during meiosis” (bioRxiv, 2025).

B1: Mer2-EQEK: Mer2 with residues E50, Q54, E57, and K61 mutated to alanine (protein)
chain: MVARGRTDEISTDVSEANSEHSLMITETSSPFRSIFSHSGKVANAGALEASDKAILAWAGALELESMELRENSDKLIKVLNENSKTLCKSLNKFNQLLEQDAATNGNVKTLIKDLASQIENQLDKVSTAMLSKGDEKKTKSDSSYRQVLVEEISRYNSKITRHVTNKQHETEKSMRCTQEMLFNVGSQLEDVHKVLLSLSKDMHSLQTRQTALEMAFREKADHAYDRPDVSLNGTTLLHDMDEAHDKQRKKSVPPPRMMVTRSMKRRRSSSPTLSTSQNHNSEDNDDASHRLKRAARTIIPWEELRPDTLESEL
modifications: left off: His, end not stated, kept | SUMO, end not stated, kept
notes: Mer2 with residues E50, Q54, E57, and K61 mutated to alanine
B2: Mre11-ΔC49: Mre11 with C-terminal 49 residues (residues 644–692) deleted (protein, UniProt P32829 1-643, looked up, fragment)
chain: MDYPDPDTIRILITTDNHVGYNENDPITGDDSWKTFHEVMMLAKNNNVDMVVQSGDLFHVNKPSKKSLYQVLKTLRLCCMGDKPCELELLSDPSQVFHYDEFTNVNYEDPNFNISIPVFGISGNHDDASGDSLLCPMDILHATGLINHFGKVIESDKIKVVPLLFQKGSTKLALYGLAAVRDERLFRTFKDGGVTFEVPTMREGEWFNLMCVHQNHTGHTNTAFLPEQFLPDFLDMVIWGHEHECIPNLVHNPIKNFDVLQPGSSVATSLCEAEAQPKYVFILDIKYGEAPKMTPIPLETIRTFKMKSISLQDVPHLRPHDKDATSKYLIEQVEEMIRDANEETKQKLADDGEGDMVAELPKPLIRLRVDYSAPSNTQSPIDYQVENPRRFSNRFVGRVANGNNVVQFYKKRSPVTRSKKSGINGTSISDRDVEKLFSESGGELEVQTLVNDLLNKMQLSLLPEVGLNEAVKKFVDKDEKTALKEFISHEISNEVGILSTNEEFLRTDDAEEMKALIKQVKRANSVRPTPPKENDETNFAFNGNGLDSFRSSNREVRTGSPDITQSHVDNESRITHISQAESSKPTSKPKRVRTATKKKIPAFSDSTVISDAENELGDNNDAQDDVDIDENDIIMVSTDEEDA
B3: Mre11^IDR: eGFP-tagged Mre11-IDR (524-677) (protein, UniProt P32829 524-677, looked up, fragment)
chain: NSVRPTPPKENDETNFAFNGNGLDSFRSSNREVRTGSPDITQSHVDNESRITHISQAESSKPTSKPKRVRTATKKKIPAFSDSTVISDAENELGDNNDAQDDVDIDENDIIMVSTDEEDASYGLLNGRKTKTKTRPAASTKTASRRGKGRASRT
modifications: eGFP tag
B4: Mre11 (protein)
chain: MDYPDPDTIRILITTDNHVGYNENDPITGDDSWKTFHEVMMLAKNNNVDMVVQSGDLFHVNKPSKKSLYQVLKTLRLCCMGDKPCELELLSDPSQVFHYDEFTNVNYEDPNFNISIPVFGISGNHDDASGDSLLCPMDILHATGLINHFGKVIESDKIKVVPLLFQKGSTKLALYGLAAVRDERLFRTFKDGGVTFEVPTMREGEWFNLMCVHQNHTGHTNTAFLPEQFLPDFLDMVIWGHEHECIPNLVHNPIKNFDVLQPGSSVATSLCEAEAQPKYVFILDIKYGEAPKMTPIPLETIRTFKMKSISLQDVPHLRPHDKDATSKYLIEQVEEMIRDANEETKQKLADDGEGDMVAELPKPLIRLRVDYSAPSNTQSPIDYQVENPRRFSNRFVGRVANGNNVVQFYKKRSPVTRSKKSGINGTSISDRDVEKLFSESGGELEVQTLVNDLLNKMQLSLLPEVGLNEAVKKFVDKDEKTALKEFISHEISNEVGILSTNEEFLRTDDAEEMKALIKQVKRANSVRPTPPKENDETNFAFNGNGLDSFRSSNREVRTGSPDITQSHVDNESRITHISQAESSKPTSKPKRVRTATKKKIPAFSDSTVISDAENELGDNNDAQDDVDIDENDIIMVSTDEEDASYGLLNGRKTKTKTRPAASTKTASRRGKGRASRTPKTDILGSLLAKKRK
modifications: left off: Gal4 activation domain (from the vector pGAD-C1), end not stated, kept

Key:
[1] = system: Mer2; experiment: Co-expression NiNTA pulldown of MBP-Mre11-C49 (prey) with HisSUMO-Mer2 (bait); type: binding, S. cerevisiae; settings: co-expression in E. coli, anti-MBP elution/input signal normalized to wild type, at least seven independent samples
Excerpt: The vector for expression of ^MBPMre11-C49 and ^HisSUMOMer2 (pCCB1040) was based on a pET-Duet1 vector with the sequence coding for ^MBPMre11-C49 cloned within the first position (SacI site) and the sequence coding for ^HisSUMOMer2 cloned at the second position (XhoI site). The EQEK mutations and LLK mutations were introduced by PCR amplification of pCCB1040 with primers cb1561 and cb1562, and pp84 and pp85, followed by phosphorylation and self-ligation to yield plasmids pry59 and pry61, respectively.
Wild-type and mutant MBP-tagged Mre11-C49 and HisSUMO-tagged Mer2 were co-expressed in 50 mL of E. coli BL21 cultures and purified by affinity chromatography on Ni-NTA resin following a procedure similar to that described above. Briefly, cells were lysed by sonication and centrifuged at maximum speed for 30 mins at 4°C on a table-top centrifuge. A small fraction of the supernatant was collected as ‘Input’ and the remainder was incubated with 120 μL Ni-NTA resin, pre-equilibrated with wash buffer (25 mM HEPES pH 7.5, 20 mM imidazole, 0.1 mM DTT, 0.1 mM PMSF, 10% glycerol), for 1 hour on a rotating wheel at 4°C. The resin was washed twice with 2 ml in batch and five times with 2 ml on column before eluting with 250 μL of 500 mM imidazole in wash buffer. […]

[2] = system: Mer2; experiment: In vitro colocalization of Mre11 with Mer2 condensates; type: binding, S. cerevisiae; settings: 200 nM Alexa594Mer2 and eGFPMre11, assembled separately on DNA then mixed 1:1 for 30 min
Method: Proteins were diluted to a 10× stock of their appropriate working concentrations in their respective storage buffers. […] Unless specified otherwise, all reactions contained 400 nM ^Alexa488Mre11 or 100 nM ^eGFPMRX. A typical 20 μL binding reaction contained 2 μL protein of 10× stock of indicated concentration, 10 μL of 2× reaction buffer, and 150 ng of supercoiled pUC19 (5.7 nM). Typical reactions were assembled at 30°C for 30 mins with gentle mixing every 5 mins, unless mentioned otherwise. 5 μL was dropped onto a microscope slide and covered with a coverslip. All images were captured on a Zeiss Axio Observer with a 100×/1.4 NA oil immersion objective except for images provided in Figure 4G which were captured on Leica Stellaris DMI 8 confocal microscope with a 63x/1.2 NA water immersion objective. Images were analyzed with ImageJ using a custom-made script. In brief, 129.24 × 129.24-μm (2048 × 2048-pixel) images were thresholded to mean intensity of the background plus three times the standard deviation of the background. Masked foci were counted and the intensity inside the focus mask was integrated. Data points represent averages of at least 8–10 images per sample. Data were analyzed using Graphpad Prism 10.4.0.

[3] = system: pUC19 plasmid; experiment: Gel shift assay of Mre11 and truncations; type: binding
Method: Proteins were diluted to their appropriate working concentrations in their respective storage buffers. […] Reactions were assembled at 30°C for 30 mins and resolved in a 1% agarose (SeaKem LE Agarose, Lonza) at 60 V for 120 mins at 4°C. Gels were stained with SYBR Gold Nucleic Acid Gel Stain (S11497, Invitrogen) for 40 mins and visualized with Amersham Typhoon biomolecular imager (Cytiva).

[4] = system: plasmid DNA (pUC19); experiment: In vitro condensation of Mre11 truncations with plasmid DNA; settings: eGFP-tagged protein, 200 nM Mre11 for ΔIDR and ΔC49
Method: Proteins were diluted to a 10× stock of their appropriate working concentrations in their respective storage buffers. Reactions were performed in a buffer containing 25 mM HEPES-HCl (pH 7.5), 2 mM DTT, 1 mg/ml BSA, 5% glycerol, 5 mM MgCl2, 5% PEG-3350, and NaCl. Considering the salt contributed by the protein dilution buffer, final concentration of NaCl in a reaction was adjusted to 120 mM. Unless specified otherwise, all reactions contained 400 nM ^Alexa488Mre11 or 100 nM ^eGFPMRX. A typical 20 μL binding reaction contained 2 μL protein of 10× stock of indicated concentration, 10 μL of 2× reaction buffer, and 150 ng of supercoiled pUC19 (5.7 nM). Typical reactions were assembled at 30°C for 30 mins with gentle mixing every 5 mins, unless mentioned otherwise. 5 μL was dropped onto a microscope slide and covered with a coverslip. All images were captured on a Zeiss Axio Observer with a 100×/1.4 NA oil immersion objective except for images provided in Figure 4G which were captured on Leica Stellaris DMI 8 confocal microscope with a 63x/1.2 NA water immersion objective. Images were analyzed with ImageJ using a custom-made script. […] Masked foci were counted and the intensity inside the focus mask was integrated. […] Data were analyzed using Graphpad Prism 10.4.0.

| Molecule | interaction of Mre11-C49 and Mer2 in pulldown (anti-MBP immunoblot) [1] | colocalization with Mer2 [2] | species of reduced electrophoretic mobility ([3]; 1 nM pUC19, higher protein concentration) | condensate formation in vitro [4] | DNA binding ([3]; 1 nM pUC19, 25 mM HEPES pH 7.5, 5 mM EDTA, 100 mM NaCl, 30°C 30 min, two independent experiments for truncations) |
| --- | --- | --- | --- | --- | --- |
| B1 | strongly decreased the interaction between the two partners |  |  |  |  |
| B2 |  | strongly reduced colocalization as compared to wild-type Mre11 | absent | strongly reduced Mre11 foci intensity |  |
| B3 |  |  |  | failed to form condensates | reduced DNA binding as compared to the WT or Mre11^ΔIDR |
| B4 |  | nearly absolute colocalization |  |  |  |
